Assay results as given in patent US20200369765A1 (INNATE PHARMA, published 2020).
Numbering of substitutions follows the chain as printed. Each block holds one binder with its values, some of them ahead of it.

Columns and labels:
[1] = target: T1, Human Siglec-9 mutant M16 (human, UniProt Q9Y336 18-463); assay: flow cytometry, HEK293T transfectants; '-' indicates full loss of binding
T1 construct: Expressed on HEK293T cells; also called Mutant 16

[2] = target: T2, Human Siglec-9 (human, UniProt Q9Y336 18-463); assay: flow cytometry, CHO Siglec-9 cells, mean n = 2
T2 construct: On transfected CHO cells; also on YTS and KHYG-1 transfectants, primary NK cells and moDC; also called huSiglec-9; CD329
Protocol: Binding of humanized antibodies was tested on CHO cells transfected with human Siglec-9, in a titration experiment by flow cytometry. Cells were incubated 90 minutes at 37° C. in Staining Buffer (SB) with primary antibodies at 10 ug/ml and a series of dilution of 1:10. They were washed three times with SB, then incubated 30 minutes with a goat F(ab′)² Anti-human IgG (Fc) PE. EC₅₀ values (μg/ml) for Siglec-9 expressing cells are shown below.
Target sequence in this assay (Q9Y336 18-463): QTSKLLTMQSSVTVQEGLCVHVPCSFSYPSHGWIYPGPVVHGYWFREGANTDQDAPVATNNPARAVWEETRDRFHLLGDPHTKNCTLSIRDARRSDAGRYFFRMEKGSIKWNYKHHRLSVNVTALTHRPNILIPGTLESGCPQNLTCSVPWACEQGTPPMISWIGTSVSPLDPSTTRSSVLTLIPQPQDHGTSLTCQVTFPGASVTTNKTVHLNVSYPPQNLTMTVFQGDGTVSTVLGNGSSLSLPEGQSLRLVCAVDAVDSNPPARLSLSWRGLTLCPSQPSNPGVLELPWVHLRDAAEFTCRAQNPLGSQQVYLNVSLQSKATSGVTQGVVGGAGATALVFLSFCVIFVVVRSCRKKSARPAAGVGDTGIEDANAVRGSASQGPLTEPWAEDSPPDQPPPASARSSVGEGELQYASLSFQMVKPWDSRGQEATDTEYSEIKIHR

[3] = target: T2, Human Siglec-9; assay: flow cytometry titration on untreated monocyte-derived dendritic cells (moDCs), goat F(ab')2 anti-human IgG (Fc) PE; table under the left panel
Protocol: Binding on moDCs and neuraminidase treated moDCs was tested in a titration experiment by flow cytometry. Cells were incubated 1h in Staining Buffer (SB) with primary antibodies at 10 ug/ml and a series of dilution of 1:10. They were washed two times with SB, then incubated 30 min with a Goat F(ab′)² Anti-Human IgG (Fc) PE (Jackson ImmunoResearch), and washed twice with SB.

[4] = target: T3, Human Siglec-9 mutant M11 (human, UniProt Q9Y336 18-463); assay: flow cytometry, HEK293T transfectants
T3 construct: Expressed on HEK293T cells; also called Mutant 11

[5] = target: T4, Human Siglec-9 mutant M10 (human, UniProt Q9Y336 18-463); assay: flow cytometry, HEK293T transfectants
T4 construct: Expressed on HEK293T cells; also called Mutant 10

[6] = target: T5, Human Siglec-9 mutant M6 (human, UniProt Q9Y336 18-463); assay: flow cytometry, HEK293T transfectants; '-' indicates full loss of binding
T5 construct: Expressed on HEK293T cells; also called Mutant 6

[7] = target: T6, Siglec-9 Fc protein (human); assay: ELISA, blocking: Siglec-9 Fc captured on protein A, mAb dilution series, then biotinylated polymer Sia1, streptavidin-peroxidase (top panel); weak partial inhibition
T6 construct: Produced in CHO cells; also called human Siglec-9 Fc
Protocol: (§1) Blocking of the interaction between Siglec-7 and -9 and sialylated ligands by anti Siglec-7/9 antibodies was tested on ELISA assays. Siglec proteins were Siglec-7 human Fc and Siglec-9 Human Fc recombinant proteins, and ligands were biotinylated polymers with sialylated trisaccharides (Neu5Aca2-3Galb1-4GcNAcb-PAA-biotin Glycotech #01-077 referred to as “Sia1” and 6′-Sialyllactose-PAA-biotin Glycotech #01-039 (referred to as “Sia2”). Briefly, Protein A was coated on ELISA plates over night at 4° C. After 3 washes and saturation, Siglec-7 Fc and Siglec-9 Fc were added at 0.8 μg/well at RT for 1H30. After 3 washes, mAbs were added at 20 ug/ml and a series of dilution of 1:5. After 3 washes, biotinylated sialylated polymers were added for 3 hours at room temperature. After 3 washes, Streptavidin-Peroxidase (Beckman) was added at 1:1000. […] The absorbance was read at 450 nm.

[8] = target: T6, Siglec-9 Fc protein; assay: ELISA, blocking: Siglec-9 Fc captured on protein A, mAb dilution series, then biotinylated polymer Sia2, streptavidin-peroxidase (bottom panel)
Protocol: as §1

[9] = target: T7, Siglec-7 Fc protein (human); assay: ELISA, blocking: Siglec-7 Fc captured on protein A, mAb dilution series, then biotinylated polymer Sia2, streptavidin-peroxidase (bottom panel); partial inhibition
T7 construct: Produced in CHO cells; also called human Siglec-7 Fc
Protocol: as §1

[10] = target: T8, Human Siglec-9 mutant M8 (human, UniProt Q9Y336 18-463); assay: flow cytometry, HEK293T transfectants; '-' indicates full loss of binding
T8 construct: Expressed on HEK293T cells; also called Mutant 8

[11] = target: T7, Siglec-7 Fc protein; assay: ELISA, blocking: Siglec-7 Fc captured on protein A, mAb dilution series, then biotinylated polymer Sia2 (6'-Sialyllactose-PAA-biotin), streptavidin-peroxidase (top panel)
Protocol: as §1

T6 sequence (chain, as listed by the source limits assumed): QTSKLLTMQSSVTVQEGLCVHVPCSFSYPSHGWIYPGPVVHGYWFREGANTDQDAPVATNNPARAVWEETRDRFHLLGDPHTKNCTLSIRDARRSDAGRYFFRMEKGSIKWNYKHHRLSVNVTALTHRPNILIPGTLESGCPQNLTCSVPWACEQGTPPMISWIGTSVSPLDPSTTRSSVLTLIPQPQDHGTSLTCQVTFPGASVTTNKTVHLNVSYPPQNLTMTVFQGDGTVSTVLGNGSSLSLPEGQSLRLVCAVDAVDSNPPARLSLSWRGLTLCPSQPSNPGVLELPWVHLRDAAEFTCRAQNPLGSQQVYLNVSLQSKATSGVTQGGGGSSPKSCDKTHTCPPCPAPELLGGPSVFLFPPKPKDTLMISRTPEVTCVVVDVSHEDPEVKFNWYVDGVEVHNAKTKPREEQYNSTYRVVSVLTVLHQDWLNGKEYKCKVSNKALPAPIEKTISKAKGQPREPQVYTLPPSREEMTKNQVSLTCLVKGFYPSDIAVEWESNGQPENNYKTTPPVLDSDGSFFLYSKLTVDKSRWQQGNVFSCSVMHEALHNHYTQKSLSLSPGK
T4 sequence (Q9Y336 other isoform, or with tags, fused parts or gaps mutant): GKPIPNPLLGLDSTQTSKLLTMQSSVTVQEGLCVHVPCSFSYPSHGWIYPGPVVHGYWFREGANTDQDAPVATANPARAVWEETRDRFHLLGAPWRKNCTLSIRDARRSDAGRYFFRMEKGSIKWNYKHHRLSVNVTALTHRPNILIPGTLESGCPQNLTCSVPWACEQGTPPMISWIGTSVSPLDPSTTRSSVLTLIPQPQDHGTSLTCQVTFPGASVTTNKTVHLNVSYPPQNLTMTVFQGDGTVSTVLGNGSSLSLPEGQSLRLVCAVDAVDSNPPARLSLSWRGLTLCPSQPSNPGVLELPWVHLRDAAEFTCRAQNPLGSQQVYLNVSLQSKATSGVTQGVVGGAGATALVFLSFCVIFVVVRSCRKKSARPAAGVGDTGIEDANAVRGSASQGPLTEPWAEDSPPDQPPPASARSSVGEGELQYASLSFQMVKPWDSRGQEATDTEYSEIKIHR
T3 sequence (Q9Y336 other isoform, or with tags, fused parts or gaps mutant): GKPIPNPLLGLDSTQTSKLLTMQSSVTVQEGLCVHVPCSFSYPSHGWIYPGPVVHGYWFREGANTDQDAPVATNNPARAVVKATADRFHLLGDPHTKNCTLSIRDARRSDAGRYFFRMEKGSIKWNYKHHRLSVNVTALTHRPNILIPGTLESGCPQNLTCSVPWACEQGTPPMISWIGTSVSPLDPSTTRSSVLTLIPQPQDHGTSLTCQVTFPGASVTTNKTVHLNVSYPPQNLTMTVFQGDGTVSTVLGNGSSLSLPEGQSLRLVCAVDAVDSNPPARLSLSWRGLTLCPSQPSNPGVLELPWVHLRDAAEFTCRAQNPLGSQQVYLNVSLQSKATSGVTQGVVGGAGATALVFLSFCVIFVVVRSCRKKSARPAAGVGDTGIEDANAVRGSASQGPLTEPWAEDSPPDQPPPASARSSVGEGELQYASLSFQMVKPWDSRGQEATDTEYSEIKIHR
T7 sequence (chain, as listed by the source limits assumed): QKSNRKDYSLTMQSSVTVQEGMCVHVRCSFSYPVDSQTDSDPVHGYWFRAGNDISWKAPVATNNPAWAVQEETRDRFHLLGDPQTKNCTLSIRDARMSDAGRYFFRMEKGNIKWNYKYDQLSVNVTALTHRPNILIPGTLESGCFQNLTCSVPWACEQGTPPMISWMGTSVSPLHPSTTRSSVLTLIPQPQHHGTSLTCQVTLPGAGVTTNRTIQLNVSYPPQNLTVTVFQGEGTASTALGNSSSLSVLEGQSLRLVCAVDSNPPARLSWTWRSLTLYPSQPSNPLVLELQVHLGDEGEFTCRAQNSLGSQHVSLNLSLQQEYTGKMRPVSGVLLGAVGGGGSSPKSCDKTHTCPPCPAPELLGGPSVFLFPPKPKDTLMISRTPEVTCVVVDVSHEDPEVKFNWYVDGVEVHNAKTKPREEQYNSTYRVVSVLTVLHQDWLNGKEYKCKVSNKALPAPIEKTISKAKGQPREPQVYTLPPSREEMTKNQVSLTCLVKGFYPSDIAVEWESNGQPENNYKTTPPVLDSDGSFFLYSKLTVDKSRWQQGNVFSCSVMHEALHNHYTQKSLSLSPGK
T1 sequence (Q9Y336 other isoform, or with tags, fused parts or gaps mutant): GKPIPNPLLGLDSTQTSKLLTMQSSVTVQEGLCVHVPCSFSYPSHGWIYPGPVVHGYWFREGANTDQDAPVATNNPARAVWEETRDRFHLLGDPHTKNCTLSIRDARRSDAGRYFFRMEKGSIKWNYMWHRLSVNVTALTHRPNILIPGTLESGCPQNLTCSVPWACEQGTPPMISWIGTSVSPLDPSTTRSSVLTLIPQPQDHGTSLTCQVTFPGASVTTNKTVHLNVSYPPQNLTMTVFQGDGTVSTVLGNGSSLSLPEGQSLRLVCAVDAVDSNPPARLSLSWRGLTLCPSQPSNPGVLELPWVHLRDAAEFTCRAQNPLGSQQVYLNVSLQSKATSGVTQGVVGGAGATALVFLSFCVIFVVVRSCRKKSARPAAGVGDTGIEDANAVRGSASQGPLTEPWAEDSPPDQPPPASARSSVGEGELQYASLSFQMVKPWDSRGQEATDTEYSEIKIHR
T8 sequence (Q9Y336 other isoform, or with tags, fused parts or gaps mutant): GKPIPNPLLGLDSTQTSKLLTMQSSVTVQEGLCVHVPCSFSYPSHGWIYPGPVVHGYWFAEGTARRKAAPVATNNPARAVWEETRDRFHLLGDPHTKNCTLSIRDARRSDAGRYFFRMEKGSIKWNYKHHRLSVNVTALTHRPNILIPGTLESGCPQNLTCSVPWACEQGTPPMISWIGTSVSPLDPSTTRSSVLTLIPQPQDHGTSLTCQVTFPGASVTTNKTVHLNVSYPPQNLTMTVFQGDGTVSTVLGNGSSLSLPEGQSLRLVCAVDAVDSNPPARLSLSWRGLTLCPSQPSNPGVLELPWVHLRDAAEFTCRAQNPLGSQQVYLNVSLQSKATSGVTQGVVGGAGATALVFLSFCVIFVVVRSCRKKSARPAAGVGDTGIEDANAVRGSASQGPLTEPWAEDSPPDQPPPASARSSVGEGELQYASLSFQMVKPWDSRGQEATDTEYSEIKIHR
T5 sequence (Q9Y336 other isoform, or with tags, fused parts or gaps mutant): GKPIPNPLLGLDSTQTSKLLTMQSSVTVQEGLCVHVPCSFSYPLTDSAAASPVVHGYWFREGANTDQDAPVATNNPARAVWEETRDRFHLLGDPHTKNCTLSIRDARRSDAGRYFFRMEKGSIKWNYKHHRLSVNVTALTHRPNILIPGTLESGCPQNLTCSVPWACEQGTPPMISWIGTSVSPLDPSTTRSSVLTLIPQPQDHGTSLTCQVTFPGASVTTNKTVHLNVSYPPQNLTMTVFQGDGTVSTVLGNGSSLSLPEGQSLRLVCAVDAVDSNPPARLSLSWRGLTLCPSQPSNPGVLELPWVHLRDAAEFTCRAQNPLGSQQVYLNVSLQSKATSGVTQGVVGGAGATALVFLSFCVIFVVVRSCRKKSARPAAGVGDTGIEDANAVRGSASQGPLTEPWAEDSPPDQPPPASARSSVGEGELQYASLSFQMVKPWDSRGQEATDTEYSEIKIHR

B1: mAbA (antibody, human IgG1, V domains shown)
VH: QVQLQQPGAELVKPGSPVKLSCKASYFTFTSYWMHWVRQRPGQGLEWIGEINPSNGHTNYNEKFESKATLTVDRSSSTAYMQLSSLTSEDSAVFYCANGVESYDFDDALDYWGQGTSVTVSS
VL: DIQMTQTTSSLSASLGDRVTISCRASQDINNYLNWYQQKPDGTIKLLIYYTSRLHSGVPSRFSGSGSGTDYSLTINNLEQEDIATYFCQQGNTLPFTFGGGTKLEIK
binding result [1]: no binding
EC50 [2]: 0.03 µg/mL
EC50 [3]: 0.232 µg/mL
binding result [4]: binds
binding result [5]: binds

B2: mAbB (antibody, human IgG1, V domains shown)
VH: QVQLQQPGAELVKPGASVKLSCKASVYTFTSYWMHWVKQRPGQGLEWIGEINPSNGHTNYNEKFKTKAKLTVDKSSSTAYMQLSSLTSEDSAVYFCANGVETYDFDDAMDYWGQGTSVTVSS
VL: B1 VL with I44V, Y50F, N76S, N92D, L94F
binding result [1]: no binding
binding result [4]: binds
binding result [5]: binds

B4: mAb1 (antibody, human IgG1, V domains shown)
VH: DVQLQESGPGLVKPSQSLSLTCTVTGYSITGGFAWNWIRQFPGNTLEWMGYIGYGGSTSYNPSLNSRISITRDTSKNHFFLQFNSVTTDDSATYYCARGDYLFAYWGQGTLVTVSA
VL: DIVMTQSHKFMSTSVGDRVSITCKASQDVNTAVAWYQQKPGQSPKLLIYSASYRYTGVPDRFTGSGSGTDFTFTISSVQAEDLAVYYCQQHYSTPRTFGGGTKLEIK
IC50 (read off the curve) [7]: ~2 µg/mL
IC50 (read off the curve) [8]: ~1 µg/mL
IC50 (read off the curve) [9]: ~4 µg/mL

B5: mAb2 (antibody, human IgG1, V domains shown)
VH: B4 VH with D1E, D89E
VL: B4 VL
IC50 (read off the curve) [7]: ~2 µg/mL
IC50 (read off the curve) [8]: ~1 µg/mL
IC50 (read off the curve) [9]: ~4 µg/mL

B7: mAb6 (antibody, human IgG1, V domains shown)
VH: EIQLQQSGPELEKPGASVKISCKASGYSFSDYNMNWVKQSNGKSLEWIGNIDPYYGATSYNQRFKGKATLTVDKSSSTAYMQLKSLTSEDSAVYYCARGDSLFAYWGQGTLVTVSA
VL: DIVMTQSQEFMSTSLGDRVSVTCKASQNVGTNVAWYQQKPGQSPKALLYSASSRYSGVPDRFTGSGSGTDFTLTINNMQSEDLAEYFCQQYITYPYTFGGGTKLEIK
binding result [11]: binds

Next, values leading:

binding result [6]: no binding
EC50 [2]: 0.036 µg/mL
EC50 [3]: 2.47 µg/mL
binding result [4]: binds
binding result [5]: binds
B3: mAbD (antibody, human IgG1, V domains shown)
VH: QIQLVQSGPELKKPGETVKISCKASGYTFTDYSMHWVKQAPGKGLKWMGWIITETGEPTYADDFRGRFAFSLETSANTAYLQINNLKNEDTATYFCARDFDGYWGQGTTLTVSS
VL: DILMTQSPASLSASVGETVTITCRASENIYSYLAWYQQKRGKSPQFLVYNAKTLTEGVPSRFRGSGSGTQFSLKINSLQPEDFGTYYCQHHYGFPWTFGGGTKLEIK

binding result [10]: no binding
EC50 [3]: 0.196 µg/mL
binding result [4]: binds
binding result [5]: binds
B6: mAbC (antibody, human IgG1, V domains shown)
VH: QIQLVQSGPELKKPGETVKISCKASGYTFTNYEMNWVKEAPGKGLKWMGWINTYTGESTYADDFKGRFAFSLETSASTVYLQINNLKDEDVATYFCVRDDYGRSYGFAYWGQGTLVTVSA
VL: NIVLTQSPASLTVSLGQRANISCRASESVDSYGNSFMHWYQQKPGQPPKLLIYLASKLESGVPARFSGSGSRTDFTLTIDPVETDDAATYYCHQNNEDPPWTFGGGTKLEIK
